We go through three substances from patent US8715948.

“Also recorded” adds a separate entry of the source.

In one series the target is fibronectin (UniProt P02751).
The target in the next series is fibrillin-1 (UniProt P35555).
For series [1], the target named is human insoluble skin elastin (UniProt P15502).
The target in series [2] is human insoluble aortic elastin (UniProt P15502).
Sequence of human insoluble aortic elastin (P15502 27-786): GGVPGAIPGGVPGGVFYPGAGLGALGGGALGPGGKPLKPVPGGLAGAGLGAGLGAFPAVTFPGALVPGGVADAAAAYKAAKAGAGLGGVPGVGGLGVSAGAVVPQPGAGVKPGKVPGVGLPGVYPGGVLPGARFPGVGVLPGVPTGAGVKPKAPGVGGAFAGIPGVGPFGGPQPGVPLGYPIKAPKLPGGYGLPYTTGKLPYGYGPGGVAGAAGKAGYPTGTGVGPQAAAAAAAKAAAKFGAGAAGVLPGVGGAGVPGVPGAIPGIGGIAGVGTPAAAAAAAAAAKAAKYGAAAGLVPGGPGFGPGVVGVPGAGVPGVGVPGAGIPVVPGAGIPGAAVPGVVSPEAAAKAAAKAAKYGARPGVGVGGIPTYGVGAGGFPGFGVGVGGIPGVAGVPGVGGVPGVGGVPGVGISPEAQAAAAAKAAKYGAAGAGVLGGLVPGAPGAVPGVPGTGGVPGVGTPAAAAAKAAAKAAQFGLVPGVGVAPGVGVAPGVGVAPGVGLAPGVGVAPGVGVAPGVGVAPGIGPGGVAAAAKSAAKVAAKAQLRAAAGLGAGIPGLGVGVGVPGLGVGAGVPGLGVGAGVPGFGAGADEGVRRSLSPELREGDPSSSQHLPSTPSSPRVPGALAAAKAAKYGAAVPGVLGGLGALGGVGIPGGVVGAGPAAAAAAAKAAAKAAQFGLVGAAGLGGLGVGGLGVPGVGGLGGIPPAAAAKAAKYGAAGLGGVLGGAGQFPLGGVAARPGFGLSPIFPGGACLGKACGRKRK

Sequence of fibrillin-1 (P35555 whole entry, looked up): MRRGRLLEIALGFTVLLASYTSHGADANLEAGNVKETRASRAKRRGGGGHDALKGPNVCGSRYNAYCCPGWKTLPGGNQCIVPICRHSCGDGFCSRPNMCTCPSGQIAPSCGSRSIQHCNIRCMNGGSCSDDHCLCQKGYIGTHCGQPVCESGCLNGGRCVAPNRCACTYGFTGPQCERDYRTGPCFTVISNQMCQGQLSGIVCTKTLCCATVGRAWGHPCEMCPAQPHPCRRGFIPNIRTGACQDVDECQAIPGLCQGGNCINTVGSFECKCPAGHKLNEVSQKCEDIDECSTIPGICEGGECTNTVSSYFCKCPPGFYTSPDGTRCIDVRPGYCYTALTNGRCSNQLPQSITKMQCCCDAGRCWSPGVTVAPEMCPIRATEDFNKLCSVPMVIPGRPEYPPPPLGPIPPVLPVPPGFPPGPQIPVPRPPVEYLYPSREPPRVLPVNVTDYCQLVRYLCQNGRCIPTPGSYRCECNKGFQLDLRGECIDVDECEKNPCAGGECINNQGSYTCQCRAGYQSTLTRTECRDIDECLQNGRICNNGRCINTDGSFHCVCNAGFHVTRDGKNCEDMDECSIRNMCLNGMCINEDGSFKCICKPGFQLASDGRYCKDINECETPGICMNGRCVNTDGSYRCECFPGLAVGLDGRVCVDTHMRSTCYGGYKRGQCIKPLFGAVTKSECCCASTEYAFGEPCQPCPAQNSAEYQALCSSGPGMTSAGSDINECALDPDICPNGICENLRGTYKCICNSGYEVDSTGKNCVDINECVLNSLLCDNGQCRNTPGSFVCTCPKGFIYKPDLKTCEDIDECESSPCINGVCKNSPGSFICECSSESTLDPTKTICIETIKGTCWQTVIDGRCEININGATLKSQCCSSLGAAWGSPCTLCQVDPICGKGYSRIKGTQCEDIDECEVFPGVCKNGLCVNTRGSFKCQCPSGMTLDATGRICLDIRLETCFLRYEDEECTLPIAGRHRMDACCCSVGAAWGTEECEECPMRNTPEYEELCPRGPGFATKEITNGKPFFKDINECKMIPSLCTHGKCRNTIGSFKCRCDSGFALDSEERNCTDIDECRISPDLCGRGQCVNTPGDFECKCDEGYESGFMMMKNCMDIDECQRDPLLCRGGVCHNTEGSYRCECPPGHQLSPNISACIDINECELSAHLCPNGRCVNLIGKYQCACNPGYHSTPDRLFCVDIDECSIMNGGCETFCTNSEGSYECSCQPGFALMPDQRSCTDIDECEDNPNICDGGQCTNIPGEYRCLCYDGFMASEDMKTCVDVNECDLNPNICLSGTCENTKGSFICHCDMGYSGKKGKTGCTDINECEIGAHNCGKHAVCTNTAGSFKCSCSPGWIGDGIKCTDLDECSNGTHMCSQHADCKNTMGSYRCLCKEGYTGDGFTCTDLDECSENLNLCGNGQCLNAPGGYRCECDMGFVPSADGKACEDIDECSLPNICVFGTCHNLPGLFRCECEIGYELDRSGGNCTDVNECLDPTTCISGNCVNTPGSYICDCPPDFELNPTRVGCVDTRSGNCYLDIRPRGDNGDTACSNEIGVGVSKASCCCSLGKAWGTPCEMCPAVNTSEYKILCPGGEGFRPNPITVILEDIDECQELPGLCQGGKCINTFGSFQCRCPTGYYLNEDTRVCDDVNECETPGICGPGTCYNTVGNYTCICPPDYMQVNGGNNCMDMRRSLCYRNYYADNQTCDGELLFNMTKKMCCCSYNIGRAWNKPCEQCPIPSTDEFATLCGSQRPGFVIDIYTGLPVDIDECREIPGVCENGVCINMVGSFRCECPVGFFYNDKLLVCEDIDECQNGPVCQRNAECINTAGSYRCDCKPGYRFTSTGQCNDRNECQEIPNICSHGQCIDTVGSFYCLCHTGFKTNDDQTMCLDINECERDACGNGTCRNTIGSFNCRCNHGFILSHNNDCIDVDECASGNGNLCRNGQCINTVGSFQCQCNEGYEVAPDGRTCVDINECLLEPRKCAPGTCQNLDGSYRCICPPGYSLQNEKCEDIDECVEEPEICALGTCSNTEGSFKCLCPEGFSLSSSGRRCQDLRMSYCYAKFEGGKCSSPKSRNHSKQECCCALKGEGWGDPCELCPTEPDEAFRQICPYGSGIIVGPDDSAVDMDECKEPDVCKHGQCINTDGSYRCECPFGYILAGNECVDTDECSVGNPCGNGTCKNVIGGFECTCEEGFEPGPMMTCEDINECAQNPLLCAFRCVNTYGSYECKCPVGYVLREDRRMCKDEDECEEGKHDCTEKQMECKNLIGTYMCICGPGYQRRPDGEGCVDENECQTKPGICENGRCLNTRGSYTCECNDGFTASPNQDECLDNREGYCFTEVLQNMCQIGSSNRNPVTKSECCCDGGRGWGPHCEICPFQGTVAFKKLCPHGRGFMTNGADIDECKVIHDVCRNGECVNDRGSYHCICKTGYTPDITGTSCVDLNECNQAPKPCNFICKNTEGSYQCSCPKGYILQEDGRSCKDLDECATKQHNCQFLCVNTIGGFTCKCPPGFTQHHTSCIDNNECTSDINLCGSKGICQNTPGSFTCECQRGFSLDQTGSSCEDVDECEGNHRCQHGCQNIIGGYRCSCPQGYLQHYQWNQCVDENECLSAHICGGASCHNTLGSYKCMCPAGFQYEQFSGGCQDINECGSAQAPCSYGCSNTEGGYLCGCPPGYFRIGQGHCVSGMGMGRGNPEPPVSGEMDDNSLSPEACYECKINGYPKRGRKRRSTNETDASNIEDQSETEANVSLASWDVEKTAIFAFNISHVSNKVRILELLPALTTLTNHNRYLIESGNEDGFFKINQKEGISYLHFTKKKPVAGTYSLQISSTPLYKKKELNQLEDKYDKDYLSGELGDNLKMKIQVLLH
Sequence of human insoluble skin elastin (P15502 27-786): as the sequence (P15502 27-786) above

Consider Granzyme A, for which the “cleavage fragments, fibronectin Western blot of supernatants” value in the series with fibronectin was “supernatants treated with granzyme A for the indicated times were probed for fibronectin and several fragments were observed”. Besides, the “cleavage fragments, fibrillin-1 Western blot of supernatant and ECM” value with fibrillin-1 is “showed fibrillin-1 cleavage fragments in the GrA supernatant, GrA ECM”.
Turning to Trypsin, the “cleavage fragments, fibrillin-1 Western blot of supernatant and ECM” value in the series with fibrillin-1 was “showed fibrillin-1 cleavage fragments in the GrA supernatant, GrA ECM, Trypsin supernatant, and Trypsin ECM; also recorded: showed fibrillin-1 cleavage fragments in the GrB supernatant, GrB ECM, Trypsin supernatant and Trypsin ECM”.
Regarding elastase, the “radioactivity increase over background” value in series [1] came out at 14.9 fold for skin elastin; in series [2], 7.7 fold for aortic elastin.
